Earlier results, collected in publication PMC8266389.

Assays:
Cripto-1 (Homo sapiens) = Cripto-1 (Homo sapiens) (UniProt P13385)
Cryptic (Homo sapiens) = Cryptic (Homo sapiens) (UniProt P0CG37)
ACTRIIB (Homo sapiens) = ACTRIIB (Homo sapiens) (UniProt Q13705)
BMPRII (Homo sapiens) = BMPRII (Homo sapiens) (UniProt Q13873)
ALK4 (Homo sapiens) = ALK4 (Homo sapiens) (UniProt P36896)
ACTRIIA (Homo sapiens) = ACTRIIA (Homo sapiens) (UniProt P27037)
UniProt P27037, sequence (P27037 20-135): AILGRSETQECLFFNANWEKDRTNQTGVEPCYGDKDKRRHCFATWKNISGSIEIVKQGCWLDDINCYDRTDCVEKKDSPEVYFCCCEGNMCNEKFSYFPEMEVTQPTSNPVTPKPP

UniProt Q13873, sequence (Q13873 27-150): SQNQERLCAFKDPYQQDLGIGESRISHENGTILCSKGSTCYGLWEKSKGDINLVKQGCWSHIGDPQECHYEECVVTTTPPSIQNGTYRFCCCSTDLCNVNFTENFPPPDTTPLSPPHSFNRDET
UniProt Q13705, sequence (Q13705 19-137): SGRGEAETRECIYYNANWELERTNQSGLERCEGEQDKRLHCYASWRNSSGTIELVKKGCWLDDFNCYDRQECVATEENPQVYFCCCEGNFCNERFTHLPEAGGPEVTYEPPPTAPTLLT
UniProt P13385, sequence (P13385 31-150): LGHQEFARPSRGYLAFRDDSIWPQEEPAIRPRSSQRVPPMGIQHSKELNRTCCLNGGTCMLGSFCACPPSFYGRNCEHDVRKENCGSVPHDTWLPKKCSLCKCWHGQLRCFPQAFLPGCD
UniProt P36896, sequence (P36896 24-126): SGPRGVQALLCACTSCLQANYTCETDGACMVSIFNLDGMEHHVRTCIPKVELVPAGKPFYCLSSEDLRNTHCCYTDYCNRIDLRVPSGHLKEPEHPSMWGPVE
UniProt P0CG37, sequence (P0CG37 26-158): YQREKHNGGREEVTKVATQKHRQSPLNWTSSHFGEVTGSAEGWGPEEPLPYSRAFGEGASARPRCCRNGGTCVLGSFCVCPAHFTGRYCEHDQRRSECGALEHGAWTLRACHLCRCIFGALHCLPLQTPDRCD

Kd (Cripto-1 (Homo sapiens)): 16 nM
Kd (Cryptic (Homo sapiens)): 2000 nM
Kd (ACTRIIB (Homo sapiens)): 10 nM
Kd (BMPRII (Homo sapiens)): 0.149 nM
Kd (ALK4 (Homo sapiens)): 15 nM
Kd (ACTRIIA (Homo sapiens)): 100 nM
Substance: Nodal (from UniProt Q96S42)
